± gives the uncertainty stated by the source.

The nature of the series: amyloid nucleation score (Sup35N fusion, yeast selection) (log enrichment); library NNK3; higher = more nucleation; inactive = no reads after selection. Summed up:
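Peptides of 20 random codons, each fused to Sup35N, were expressed in psi-negative yeast. Cells were induced with 100 μM copper sulfate for 24 hours and grown 7 days at 30°C on medium lacking adenine and uracil, and plasmid inserts before and after selection were Illumina-sequenced. Nucleation scores are DiMSum log enrichments of output over input reads, centred on the mode score of non-aggregating sequences, and sequences under 100 input reads were excluded.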
In turn, PWPNVLLCDNDRLSFRYRSF registered an amyloid nucleation score of 0.972 ± 0.1.
For GIQIYAMFTFSKSFMLGNWY, the amyloid nucleation score result is “inactive”.
The figure for DVYISKDIRCCYLLKTFLPY is 0.123 ± 0.27; for SYMPGNLSGLWAHLLMEKNC it is “inactive”.
The entry for GLVCWTG is “inactive”.
RLKMGLSN came in with an amyloid nucleation score of -0.846 ± 0.8.
The result for SGNDNFYVDCNWLNIIVNET reads 2.79 ± 0.078.
The substance LFHHNCWNSNLSKVYMPACN had an amyloid nucleation score of 0.761 ± 0.1.
LVFFFLWHSHENFNHDLVSK: the amyloid nucleation score entry was “inactive”.
For the substance GVWVA, the amyloid nucleation score is -0.931 ± 1.9.
The entry for FNVFLSLATGISDGYYMLTA is “inactive”; for CVICSELLSSDCIIGDHRLR it is 1.7 ± 0.1.
As for CNNRVVWLKHGSLSREDGVQ, the amyloid nucleation score result was “inactive”.
Take YVIVYS: the amyloid nucleation score result is “inactive”.
As to RSCSLWVY, the amyloid nucleation score result is “inactive”.
The entry for RHGFWSVSFVSRQFSNILSC is “inactive”; for SYNILHDVSQLGTRQPPLE it is “inactive”; for TYRCYELVGDTVC it is “inactive”.
Consider MRRCDVWKIYGYMLSPPLPR, for which the amyloid nucleation score result is “inactive”.
As for FCDGPGTKY, the amyloid nucleation score result is “inactive”.
The result for FFKICFRAKYIGNLSPLLK reads “inactive”; that for TKFNG, 0.709 ± 0.19.
As for CAITAQARV, the amyloid nucleation score result was “inactive”.
SPSGSIVAVTPLIWR: the amyloid nucleation score entry was “inactive”.
The entry for FDAFM is “inactive”.
The figure for KIFSSLFRK is 0.251 ± 0.18.
On to SCSSCYIELKWLYLRILLDC, for which the amyloid nucleation score entry was “inactive”.
The result for CIQSMRH reads “inactive”.
Take TVPIMNVPD: the amyloid nucleation score was -0.428 ± 0.8.
The figure for LVVYYYLCACNYGARRFSWC is 1.15 ± 0.13.
As for TRLKFTLDWELM, the amyloid nucleation score was determined as 1.06 ± 0.098.
For MAKVLHNWFFDRYRFVMFIG, the amyloid nucleation score entry was “inactive”.
For the substance KLFGRCNSNSPIVGWIRCGL, the amyloid nucleation score result is “inactive”.
The result for CMLAQRRVTPRRYRLVSSTI reads “inactive”.
Take WYLIFGCRASWGSWR: the amyloid nucleation score is -0.039 ± 0.61.
For SFSCYCTLLGLSVHYVNPTV, the amyloid nucleation score came out at 1.82 ± 0.1.
Turning to GPVSYHMRCLYTGLSIPHLF, the amyloid nucleation score entry is “inactive”.
For the substance NHNPVCGVDNRMKVVRLYYV, the amyloid nucleation score result is “inactive”.
The entry for IQGVAWVQKAWFSRKAGVQI is “inactive”; for NLMEHSIGLYAYYYSLNDCS it is “inactive”.
Turning to YLDSSSS, the amyloid nucleation score entry is “inactive”.
As to RFWMRKY, the amyloid nucleation score result was “inactive”.
The entry for HANCANRLNYLYVLYRAS is “inactive”.
Substance IILTIGRMGLFNMAK returned an amyloid nucleation score of -0.152 ± 0.47.
For the substance FKVNGFSATILIFKQV, the amyloid nucleation score entry is “inactive”.
Take HYCMRN: the amyloid nucleation score entry is “inactive”.
On to LFFYSYTSFSIC, for which the amyloid nucleation score result is “inactive”.
Consider NPGRYRGGRTAHIFPERDIR, for which the amyloid nucleation score entry is “inactive”.
The entry for FVGNGWSNFSL is “inactive”; for WISFFT it is “inactive”; for LTSPFDPISLPKS it is “inactive”.
In the case of FRVEFTVMFLGVCTYSGDAL, the amyloid nucleation score was -0.329 ± 0.65.
The entry for ACTRYCWHYFVNIVWCESDF is “inactive”; for SRLIIVPCCLL it is 0.478 ± 0.28.
Turning to LWRGLVIWLMLSGLKCGLHL, the amyloid nucleation score entry is “inactive”.
As for YLDVPTCDLSMPCYDINNNL, the amyloid nucleation score entry was “inactive”.
For the substance IKFSYKCS, the amyloid nucleation score result was “inactive”.
As for RVLYPVKVYRNDKMADWNN, the amyloid nucleation score entry is “inactive”.
Consider SYNDSLCLDVQTIYPLHSPS, for which the amyloid nucleation score result is “inactive”.
For NGLVQSMFVIRSLAQRNERR, the amyloid nucleation score result was “inactive”.
For CSLWSMQGYLHEWRICCWRH, the amyloid nucleation score result is “inactive”.
Consider TFFNFVDGTSVWRFAGRHIY, for which the amyloid nucleation score entry is “inactive”.
In the case of YVFKYVEEVSHFSLFLWTKS, the amyloid nucleation score result is “inactive”.
For MGEMRMLVTVT, the amyloid nucleation score entry is “inactive”.
Regarding SQFDEMLFSKMEPWQVLFTM, the amyloid nucleation score entry is “inactive”.
In the case of IAKLVKFEEFRMQDCYIDWL, the amyloid nucleation score result is “inactive”.
Consider CPVLGCMSTGEYHCFLTQTY, for which the amyloid nucleation score entry was “inactive”.
As to SLYTARVFGVNYHFVTSKFF, the amyloid nucleation score result is “inactive”.
With TCCVIICEFLRRMVSAQSSL, the amyloid nucleation score was 0.758 ± 0.28.
In the case of NYAYTVMGGTIYRLWGRVMR, the amyloid nucleation score result was “inactive”.
For the substance SLCDMREWSALVFITHMSMV, the amyloid nucleation score entry is “inactive”.
GRAPYMWC had an amyloid nucleation score of -0.955 ± 2.4.
As for GVEIRYLQQ, the amyloid nucleation score result is “inactive”.
On to LAVLIVDKPYADETHRLLVR, for which the amyloid nucleation score entry was “inactive”.
For TLNIRCRRFVFVWDATNSV, the amyloid nucleation score turned out to be 2.88 ± 0.064.
The entry for AICAVPRTKMMIQRTSSNRS is “inactive”.
As for YTLGHRTPMLIYDVAGRPNY, the amyloid nucleation score result is “inactive”.
LHESRVAGSNQLSRRDHERW: the amyloid nucleation score entry was “inactive”.
On to LFYGNW, for which the amyloid nucleation score result is “inactive”.
Take TPWSYASLVLSVQCFGRLIM: the amyloid nucleation score result is “inactive”.
The entry for YVELSTYCSRWLVLIVDYLE is “inactive”.
The result for YKRGFMKRYANAEASFMSYW reads “inactive”; that for TYRRFMDNNGVIILILPNER, 1.74 ± 0.072.
The result for FTDFCVCGCNVFDVMFLLQS reads 2.67 ± 0.056.
Regarding DIPSVGQKRCSHGDRYNSAK, the amyloid nucleation score result is “inactive”.
In the case of SVVAYFLLIRYGDYRYHLQM, the amyloid nucleation score entry is “inactive”.
Turning to YCFSWNHR, the amyloid nucleation score was 0.116 ± 0.66.
The result for ASANLRILYLWTIGNVLNAY reads “inactive”; that for FFVSDKLVFSNTLLQKNKSP, 0.881 ± 0.19.
Turning to RLARADNILLGRNSVSSSVK, the amyloid nucleation score entry is “inactive”.
Turning to VFFIAAFLSTCMR, the amyloid nucleation score entry is “inactive”.
In the case of SGWIYMERIAS, the amyloid nucleation score entry is “inactive”.
Consider KVCFCSLL, for which the amyloid nucleation score is 2.94 ± 0.075.
The entry for MTSSVP is “inactive”; for CNSETRAFYYLALWVLFFFN it is “inactive”; for MCVWVWI it is 2.06 ± 0.092.
Turning to VPTMMRVR, the amyloid nucleation score entry is “inactive”.
Consider GWVFTMDFTSYLECTDMGRS, for which the amyloid nucleation score entry was “inactive”.
The result for SCEDLWNNMIAWMFATSRR reads 1.26 ± 0.1.
For KFNSRNRS, the amyloid nucleation score result was “inactive”.
Consider RHQDYLHADGLNMAISITRI, for which the amyloid nucleation score result is “inactive”.
For the substance LINAGTKFMQDTRSCWMHSS, the amyloid nucleation score result was “inactive”.
For the substance IVTLCSIFDFAFVVTASTMG, the amyloid nucleation score came to 1.13 ± 0.16.
For RLSMNLNTVHVKHKECVPYR, the amyloid nucleation score result was “inactive”.
RQSCGFILQWDKLCFSRDRT showed an amyloid nucleation score of 0.879 ± 0.25.
The result for FYMASMCCWF reads “inactive”; that for NVYMHAMCRWDVQGTAR, “inactive”.
Turning to SHIDAIAQGNTVSSCGYV, the amyloid nucleation score entry was “inactive”.
The figure for EVKFYWKYKGV is 0.561 ± 0.16; for NLGSCVRVGQWISPRRA it is “inactive”; for KREAFNQALADNHQLQMLYE it is 0.615 ± 0.12.
With TKCNDYFNVSRYSSLDS, the amyloid nucleation score result was “inactive”.
The result for VVMYIRANPTDIYSYTLQPR reads 1.56 ± 0.12; that for FYCFIPGMSVMAPFVTSYYY, 1.91 ± 0.053; that for CIAMKMWKNIRRWWSGRVAG, “inactive”.
With VRSRMSNWFNHPTVFDRLWA, the amyloid nucleation score came to 0.547 ± 0.2.
Regarding CHAIASVVSEYNGPLVVTVI, the amyloid nucleation score result was “inactive”.
For the substance NQVRVSKSVNRAIDASPEWD, the amyloid nucleation score result was “inactive”.
As for ARPMIPMCLLQRAMYPLYSP, the amyloid nucleation score result is “inactive”.
EIKSDICFGFVYTTS: the amyloid nucleation score entry is “inactive”.
On to FGTSSEF, for which the amyloid nucleation score result was “inactive”.
As to HEISSICTRFWANSLIRMSC, the amyloid nucleation score entry is “inactive”.
For VVDKILITINRSLLLSGADN, the amyloid nucleation score entry is “inactive”.
The figure for SFNSRIIKRDDCFMDLIFWT is 1.07 ± 0.12; for IVERSGVSGIWYLSGDLAKV it is “inactive”.
IGPVTLKERETRTP: the amyloid nucleation score entry was “inactive”.
In the case of IIRVLNWYHYIEAKTLNSLR, the amyloid nucleation score entry is “inactive”.
The result for ELSFPL reads “inactive”; that for DFIDLLLSSDEIMKS, “inactive”.
The entry for LGMGSSDYRGRYRSNS is “inactive”; for ARASVFAMGDTPLWSG it is “inactive”; for VEGCKEGVRVYHLTFESFVI it is “inactive”.
Turning to PCSGDSLLVSNTKNRSL, the amyloid nucleation score result was “inactive”.

(Values after the supplement of paper PMC12042874.)
